In patent publication US20250376532A1 (published 2025):

Legend:
[1] = biological target: rDR5-IgG4-Fc EMCR:AACR (98-101) Mut (90s Mut) (UniProt O14763 56-210, biotinylated for BLI (site not stated)); experiment: BLI
[2] = biological target: rDR5-IgG4-Fc SGE:AAA (135-137) NS Mut; experiment: BLI
[3] = biological target: rDR5-IgG4-Fc KYGQ:AAGA (45-48) Mut; experiment: BLI
[4] = biological target: rDR5-IgG4-Fc (UniProt O14763 56-210, biotinylated for BLI (site not stated)); experiment: BLI
[5] = biological target: DR5 (3RA); experiment: ELISA
[6] = biological target: DR5 (WT) (UniProt O14763 56-210, biotinylated for BLI (site not stated)); experiment: ELISA
[7] = biological target: T1, rDR5-IgG4 (recombinant wild type DR5 with IgG4 Fc) (UniProt O14763 56-210, biotinylated for BLI (site not stated)); experiment: BLI
[8] = biological target: T1, rDR5-IgG4 (recombinant wild type DR5 …); experiment: BLI; remark: listed apart in the source
[9] = biological target: R104W DR5; experiment: BLI
[10] = biological target: R104Y DR5; experiment: BLI
[11] = biological target: T1, rDR5-IgG4 (recombinant wild type DR5 …); experiment: ELISA
[12] = biological target: T1, rDR5-IgG4 (recombinant wild type DR5 …); experiment: ELISA; remark: listed apart in the source
[13] = biological target: KKCR; experiment: ELISA
[14] = biological target: RKCAR DR5; experiment: BLI
[15] = biological target: Chimp DR5; experiment: BLI
[16] = biological target: RKCSR DR5; experiment: BLI
[17] = biological target: Monkey DR5; experiment: BLI

R104W DR5, sequence (chain, as listed by the source R104W): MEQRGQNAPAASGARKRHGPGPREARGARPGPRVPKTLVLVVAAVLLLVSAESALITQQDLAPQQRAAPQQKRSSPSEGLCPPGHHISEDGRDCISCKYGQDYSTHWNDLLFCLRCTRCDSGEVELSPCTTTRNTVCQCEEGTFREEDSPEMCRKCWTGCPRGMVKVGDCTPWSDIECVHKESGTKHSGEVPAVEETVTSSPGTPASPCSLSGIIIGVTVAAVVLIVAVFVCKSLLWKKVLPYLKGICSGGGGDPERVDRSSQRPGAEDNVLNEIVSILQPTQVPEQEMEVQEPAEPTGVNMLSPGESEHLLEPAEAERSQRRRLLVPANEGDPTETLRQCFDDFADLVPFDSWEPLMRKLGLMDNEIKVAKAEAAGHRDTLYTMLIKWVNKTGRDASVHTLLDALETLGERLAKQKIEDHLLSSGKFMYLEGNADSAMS
R104Y DR5, sequence (chain, as listed by the source R104Y): as the sequence (chain, as listed by the source R104W) above, with W157Y counted along it

B1: KMTR2 (antibody, V domains shown)
VH: QVQLVQSGAEMKKPGASVKVSCKTSGYTFTNYKINWVRQAPGQGLEWMGWMNPDTDSTGYPQKFQGRVTMTRNTSISTAYMELSSLRSEDTAVYYCARSYGSGSYYRDYYYGMDVWGQGTTVTVSS
VL: EIVLTQSPATLSLSPGERATLSCRASQSVSSYLAWYQQKPGQAPRLLIYDASNRATGIPARFSGSGSGTDFTLTISSLEPEDFAVYYCQQRSNWPLTFGGGTKVEIKR
Question: B1 was tested. Which koff [1] did it give?
Answer: 1.61e-05 s⁻¹

Question: And the koff [2]?
Answer: 2.01e-05 s⁻¹

Question: What about the koff [3] of the same binder?
Answer: 1e-07 s⁻¹

Question: And the Kd [4]?
Answer: < 1 pM

Question: And the Kd [5]?
Answer: 87 pM

Question: And the Kd [6]?
Answer: 88 pM

B2: lexatumumab (antibody, V domains shown)
VH: EVQLVQSGGGVERPGGSLRLSCAASGFTFDDYGMSWVRQAPGKGLEWVSGINWNGGSTGYADSVKGRVTISRDNAKNSLYLQMNSLRAEDTAVYYCAKILGAGRGWYFDLWGKGTTVTVSS
VL: SSELTQDPAVSVALGQTVRITCQGDSLRSYYASWYQQKPGQAPVLVIYGKNNRPSGIPDRFSGSSSGNTASLTITGAQAEDEADYYCNSRDSSGNHVVFGGGTKLTVL
Question: With B2 as the binder, how does the Kd [7] read?
Answer: 519 pM

Question: What about the Kd [8] of the same binder?
Answer: 37.6 pM

Question: What about the Kd [9] of the same binder?
Answer: 1820 pM

Question: And the Kd [10]?
Answer: 1930 pM

Question: What about the Kd [11] of the same binder?
Answer: 81 pM

Question: And the Kd [12]?
Answer: 32 pM

B3: Antibody (antibody, V domains shown)
VH: B2 VH
VL: B2 VL
Question: Which Kd [13] does the source give for B3 here?
Answer: 1190 pM

B4: Biot-Lexa (antibody, V domains shown)
VH: B2 VH
VL: B2 VL
Question: B4 was tested. Which Kd [14] did it give?
Answer: 266 pM

Question: What about the Kd [15] of the same binder?
Answer: < 1 pM

Question: And the Kd [16]?
Answer: 215 pM

Question: What about the Kd [17] of the same binder?
Answer: 14 pM
